The text below walks through data of doi:10.1101/2025.11.13.687974.

Assay [1] concerns the target MBP-tagged chromoshadow domain (CSD) of wild-type HPL-2 (Caenorhabditis elegans). Description: mass photometry.
Assay [2] concerns the target human HP1β chromoshadow domain (CSD) (human). The assay is described as follows: mass photometry.
Assay [3] has as its target biotinylated 12-mer H3K9me3 chromatin arrays (histone octamers with H3K9me3 on 12x200-601 DNA) (Xenopus laevis | not stated). The assay is described as follows: pull-down.

Usually stoichiometry N stands for a count of units in the complex or per binding partner. With “MBP-tagged chromoshadow domain (CSD) of wild-type HPL-2 (domain or fragment)”, in assay [1], the percent dimers amounted to 67%, the percent monomers was 32% and the stoichiometry N was determined as 2.

In assay [2], “human HP1β chromoshadow domain (CSD) (domain or fragment)” displayed a percent dimers of 97% and a stoichiometry N of 2.

B1: C. elegans HPL-2, wild-type recombinant protein (natural protein)
chain: MSSKSTKRAKIEDPKDNVFMVEKVLDKRTGKAGRDEFLIQWQGFPESDSSWEPRENLQCVEMLDEFEREFSKREKPIRKRHSQKPEPSEDQADPEEDKDEKKETNQNDKFSLEGKQLKCIVGLTKGPGELHFLCKFSDDTARLLPAKEVNSRYPSQVIRYYESKLTIQDPKADEL
With B1, the fold enrichment on H3K9me3 arrays relative to unmodified arrays in assay [3] was 3 fold.
